Experimental data as given in paper PMC2880861 (New journal of chemistry = Nouveau journal de chimie, 2010).

What was measured:
[1] = target: soluble fibrin fragment DD(E); test: DD; conditions: read-out: Ki, inhibition of binding of a fluorescent peptide to DD(E); TBS·Ca; DD(E) 1.5 μM, Fl 1 μM; uncertainties estimated at ±10%
[2] = rat, tissue homogenate
[3] = in vitro; conditions: male, Sprague Dawley, rat, tissue homogenate
[4] = target: T1, gelled human fibrin (Homo sapiens, UniProt P02671+P02675+P02679); test: Relaxivity / variable temperature NMRD in fibrin gel; assay type: physicochemical
T1 sequence (P02671 20-644 isoform P02671-2 limits assumed): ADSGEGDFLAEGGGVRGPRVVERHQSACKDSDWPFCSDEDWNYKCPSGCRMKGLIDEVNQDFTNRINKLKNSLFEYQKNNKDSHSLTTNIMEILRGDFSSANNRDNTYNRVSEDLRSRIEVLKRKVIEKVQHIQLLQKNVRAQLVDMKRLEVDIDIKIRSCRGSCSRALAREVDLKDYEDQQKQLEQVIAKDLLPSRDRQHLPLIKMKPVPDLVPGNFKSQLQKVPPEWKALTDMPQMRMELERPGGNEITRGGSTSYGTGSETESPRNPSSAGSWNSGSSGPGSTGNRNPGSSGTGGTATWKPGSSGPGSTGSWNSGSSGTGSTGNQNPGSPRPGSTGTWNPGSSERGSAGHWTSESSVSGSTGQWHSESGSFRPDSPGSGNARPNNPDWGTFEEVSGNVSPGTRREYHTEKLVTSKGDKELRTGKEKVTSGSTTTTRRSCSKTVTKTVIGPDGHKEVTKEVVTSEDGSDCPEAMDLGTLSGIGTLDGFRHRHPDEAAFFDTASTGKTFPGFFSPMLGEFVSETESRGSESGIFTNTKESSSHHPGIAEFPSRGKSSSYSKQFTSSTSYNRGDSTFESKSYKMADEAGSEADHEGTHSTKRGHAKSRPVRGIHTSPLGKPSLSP
T1 sequence (P02675 45-491 limits assumed): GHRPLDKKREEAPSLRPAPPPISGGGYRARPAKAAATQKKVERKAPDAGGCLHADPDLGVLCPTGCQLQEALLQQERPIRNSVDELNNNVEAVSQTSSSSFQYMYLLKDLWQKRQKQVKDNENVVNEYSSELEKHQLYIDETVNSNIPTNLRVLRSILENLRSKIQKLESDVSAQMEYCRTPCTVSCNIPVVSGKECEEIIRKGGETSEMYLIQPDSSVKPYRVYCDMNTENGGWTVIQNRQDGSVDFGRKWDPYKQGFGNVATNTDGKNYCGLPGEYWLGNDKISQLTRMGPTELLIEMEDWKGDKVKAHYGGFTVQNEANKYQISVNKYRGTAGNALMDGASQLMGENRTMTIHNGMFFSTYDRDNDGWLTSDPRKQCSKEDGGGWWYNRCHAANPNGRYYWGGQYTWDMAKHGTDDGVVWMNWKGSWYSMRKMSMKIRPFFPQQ
T1 sequence (P02679 27-437 isoform P02679-2 limits assumed): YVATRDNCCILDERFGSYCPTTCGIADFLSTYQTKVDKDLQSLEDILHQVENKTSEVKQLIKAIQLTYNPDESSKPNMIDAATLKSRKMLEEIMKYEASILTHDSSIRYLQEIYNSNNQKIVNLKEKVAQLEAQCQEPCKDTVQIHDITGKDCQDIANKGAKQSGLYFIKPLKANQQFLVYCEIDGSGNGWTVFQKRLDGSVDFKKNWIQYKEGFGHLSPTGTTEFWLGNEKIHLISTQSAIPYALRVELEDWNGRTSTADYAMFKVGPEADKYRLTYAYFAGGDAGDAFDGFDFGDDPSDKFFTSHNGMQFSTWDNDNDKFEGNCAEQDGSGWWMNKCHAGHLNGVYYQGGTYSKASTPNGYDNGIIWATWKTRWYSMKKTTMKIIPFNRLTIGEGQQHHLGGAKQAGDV

[5] = Variable temperature NMRD and O-17 NMR relaxation in TBS; assay type: physicochemical
[6] = target: T2, human fibrinogen (Homo sapiens, UniProt P02671+P02675+P02679); test: NMRD relaxivity in human fibrinogen/TBS solution; assay type: physicochemical; conditions: 30 μM human fibrinogen/TBS, 35 °C
T2 sequence (P02671 20-629 limits assumed): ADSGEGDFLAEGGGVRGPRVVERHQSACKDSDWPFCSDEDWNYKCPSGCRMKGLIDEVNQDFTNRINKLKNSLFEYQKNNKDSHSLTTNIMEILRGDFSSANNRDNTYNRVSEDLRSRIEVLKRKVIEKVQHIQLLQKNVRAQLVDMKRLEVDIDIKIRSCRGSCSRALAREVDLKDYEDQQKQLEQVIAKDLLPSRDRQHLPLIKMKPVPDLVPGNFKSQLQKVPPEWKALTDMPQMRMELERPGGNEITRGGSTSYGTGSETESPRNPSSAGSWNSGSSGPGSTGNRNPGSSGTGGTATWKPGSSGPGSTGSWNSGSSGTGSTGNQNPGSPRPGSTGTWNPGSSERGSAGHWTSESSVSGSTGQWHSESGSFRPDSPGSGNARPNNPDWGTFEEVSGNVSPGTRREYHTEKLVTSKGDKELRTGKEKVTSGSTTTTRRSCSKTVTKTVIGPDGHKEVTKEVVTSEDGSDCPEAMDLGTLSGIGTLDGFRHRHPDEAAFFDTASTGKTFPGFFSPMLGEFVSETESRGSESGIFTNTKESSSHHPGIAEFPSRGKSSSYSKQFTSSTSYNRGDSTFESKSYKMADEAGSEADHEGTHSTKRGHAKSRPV
T2 sequence (P02675 31-491): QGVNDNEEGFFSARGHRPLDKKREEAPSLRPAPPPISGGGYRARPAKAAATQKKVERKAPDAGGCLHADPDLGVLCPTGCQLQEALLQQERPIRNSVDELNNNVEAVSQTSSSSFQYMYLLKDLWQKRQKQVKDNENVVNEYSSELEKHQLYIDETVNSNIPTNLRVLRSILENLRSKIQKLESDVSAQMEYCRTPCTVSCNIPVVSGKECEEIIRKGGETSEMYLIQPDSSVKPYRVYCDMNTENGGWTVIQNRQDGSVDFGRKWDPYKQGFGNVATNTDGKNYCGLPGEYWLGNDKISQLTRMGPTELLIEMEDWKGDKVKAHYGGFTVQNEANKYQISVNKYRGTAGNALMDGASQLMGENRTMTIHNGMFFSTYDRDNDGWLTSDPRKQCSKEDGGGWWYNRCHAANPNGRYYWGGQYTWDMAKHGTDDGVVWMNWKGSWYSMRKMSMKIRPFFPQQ
T2 sequence (P02679 27-433 limits assumed): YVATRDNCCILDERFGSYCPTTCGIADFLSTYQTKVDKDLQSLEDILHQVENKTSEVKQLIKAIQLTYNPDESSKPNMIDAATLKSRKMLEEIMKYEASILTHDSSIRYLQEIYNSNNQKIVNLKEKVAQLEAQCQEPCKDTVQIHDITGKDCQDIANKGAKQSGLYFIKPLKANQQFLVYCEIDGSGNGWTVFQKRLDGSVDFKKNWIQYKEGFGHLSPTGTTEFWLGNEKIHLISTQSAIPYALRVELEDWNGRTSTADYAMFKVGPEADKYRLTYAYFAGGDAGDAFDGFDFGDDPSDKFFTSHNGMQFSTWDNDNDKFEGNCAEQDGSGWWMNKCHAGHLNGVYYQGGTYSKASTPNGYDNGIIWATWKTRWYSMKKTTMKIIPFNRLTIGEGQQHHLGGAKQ

[7] = tested on: arterial thrombosis; conditions: guinea pig; cited from earlier work

| Ki [1] [µM] | fraction bound to fibrin ([4]; 50 μM 5 in 30 μM fibrin gel, based on the measured binding constant) [%] | binding to fibrinogen (from relaxivity enhancement) [6] | Compound | fold increase in metabolic stability [2] [fold] | half-life at 100 µM [3] [h] | ΔEl^‡ (temperature dependence of τloc) ([4]; 30 μM fibrin gel (FBN)) [kcal/mol] | τloc^37 ([4]; 30 μM fibrin gel (FBN), 37 °C) [ps] | τR^37 (global) ([4]; 30 μM fibrin gel (FBN), Lipari-Szabo model) | F^2 ([4]; 30 μM fibrin gel (FBN), dimensionless order parameter) | relaxivity per Gd ([4]; bound to fibrin at 1.5T) [mM⁻¹ s⁻¹] | relaxivity per molecule ([4]; bound to fibrin at 1.5T) [mM⁻¹ s⁻¹] | global τR ([4]; fibrin-bound, best fits) [ns] | ΔER^‡ (temperature dependence of τR) [5] [kcal/mol] | ΔH^‡ (temperature dependence of τm) [5] [kcal/mol] | Δ^2 ×10^−18 [5] [s^2] | τm^37 ([5]; 37 °C) [ns] | τv^37 ([5]; 37 °C) [ps] | τR^37 ([5]; 37 °C, isotropic model of rotation) [ps] | F^2 ([5]; dimensionless) | efficacy in arterial thrombosis model [7] |
| --- | --- | --- | --- | --- | --- | --- | --- | --- | --- | --- | --- | --- | --- | --- | --- | --- | --- | --- | --- | --- |
| 12 | – | – | CC(C)C[C@H](NC(=O)[C@@H]1CSSC[C@H](NC(=O)[C@@H]2CCCN2C(=O)[C@H](CC(C)C)NC(=O)[C@H](CNC(=O)C(CN(CCN(CC(=O)O)CC(=O)O)CC(=O)O)N(CC(=O)O)CC(=O)O)NC(=O)C(CN(CCN(CC(=O)O)CC(=O)O)CC(=O)O)N(CC(=O)O)CC(=O)O)C(=O)N[C@@H](CC(=O)O)C(=O)N[C@@H](Cc2ccc(O)cc2)C(=O)N[C@@H](Cc2ccc(O)cc2)C(=O)NCC(=O)N[C@@H]([C@@H](C)O)C(=O)N1)C(=O)N[C@@H](CC(=O)O)C(=O)NCc1ccc(CNC(=O)[C@H](CNC(=O)C(CN(CCN(CC(=O)O)CC(=O)O)CC(=O)O)N(CC(=O)O)CC(=O)O)NC(=O)C(CN(CCN(CC(=O)O)CC(=O)O)CC(=O)O)N(CC(=O)O)CC(=O)O)cc1 (some centres unmarked) [Compound 4] | 6 to 7 | 1.09 | – | – | – | – | – | – | – | – | – | – | – | – | – | – | – |
| – | 81 | does not bind/binds weakly to fibrinogen | CC(C)C[C@H](NC(=O)CN(CCNC(=O)C(CN(CCN(CC(=O)O)CC(=O)O)CC(=O)O)N(CC(=O)O)CC(=O)O)CCNC(=O)C(CN(CCN(CC(=O)O)CC(=O)O)CC(=O)O)N(CC(=O)O)CC(=O)O)C(=O)N1CCC[C@H]1C(=O)N[C@H]1CSSC[C@@H](C(=O)N[C@@H](Cc2ccc(-c3ccccc3)cc2)C(=O)N[C@@H](CC(=O)O)C(=O)NCc2cccc(CNC(=O)CN(CCNC(=O)C(CN(CCN(CC(=O)O)CC(=O)O)CC(=O)O)N(CC(=O)O)CC(=O)O)CCNC(=O)C(CN(CCN(CC(=O)O)CC(=O)O)CC(=O)O)N(CC(=O)O)CC(=O)O)c2)NC(=O)[C@H]([C@@H](C)O)NC(=O)CNC(=O)[C@H](Cc2ccc(O)cc2)NC(=O)[C@H](Cc2ccc(O)cc2)NC(=O)[C@H](CC(=O)O)NC1=O (some centres unmarked) [Compound 5] | – | – | 7.17 ± 0.48 | 720±20 | >20,000 (NA) ps | 0.08 ±0.02 | 18 | 72 | > 20 | 5.95 ± 0.096 | 10.9 ± 0.335 | 10.2 ±0.5 | 124±9 | 18.0 ±1.7 | 389±4 | 1 | showed efficacy |
